Data taken from patent US9623039B2, “Treatment and prevention of pathological conditions using iduna related techniques and compositions” (VALTED, LLC, priority 2010, dated 2017).

Experiments:
cortical neurons [1] = assay: MNNG-induced cell death in cortical neurons; assay type: cell-based, mouse; details: MNNG 50 μM for 15 min
Protocol: Primary Neuronal Culture Preparation: Primary cortical cell cultures were prepared from gestational day 15 mouse embryos as previously described. Experiments were performed at DIV (day in vitro) 14. Under these conditions, neurons represent 90% of the cells in the culture. Mature neurons were washed with control salt solution (CSS) containing 120 mM NaCl, 5.4 mM KCl, 1.8 mM CaCl2, 25 mM Tris-HCl pH 7.4 and 15 mM D-glucose. To induce NMDA-mediated […], 50 μM NMDA and 10 μM glycine in CSS solution was applied to the cells for 5 min, then the cells were washed and re-supplemented with minimum essential medium containing 10% horse serum. […]
Cell Death Assessment: Following exposure of neuronal cultures to the various treatments neuronal survival was quantified and presented as percent of cell death. Percent cell death was determined as the ratio of live-to-dead cells compared with the percent cell death in control wells to account for cell death attributable to mechanical stimulation of the cultures. Quantification of neuronal survival was determined by staining treated cultures with 5 μM Hoechst 33342 and 2 μM propidium iodide (PI) (Invitrogen, Carlsbad, Calif.). […] The numbers of total and dead (PI positive) cells were counted by automated computer assisted software (Axiovision 4.6, Zeiss, Germany). […]

MCF7 cells = assay: Determination of apurinic/apyrimidinic (AP) sites; assay type: cell-based, human; details: 1 h
Protocol: Determination of apurinic/apyrimidinic (AP) sites. The amount of AP sites in genomic DNA was monitored by a DNA damage quantification kit (BioVision). Briefly, cells were treated with either DMSO or 500 μM MNNG for 15 min, and then replaced with normal growth media. After 1 h, cells were scraped and harvested at 500×g for 5 min and washed once with PBS. Genomic DNA was isolated using a Biovision Genomic DNA Isolation Kit (BioVision) and then AP sites on the 0.5 μg of genomic DNA was labeled with biotin by the Aldehyde Reactive Probe (ARP) reagent (supplied with the DNA damage quantification kit) for 1 h at 37° C. To precipitate the biotin-tagged DNA, sample was mixed with TE buffer containing 2% glycogen and then sequentially incubated with ice cold 70% ethanol for 30 min at −20° C. […] To determine of the number of AP sites in DNA, samples were dissolved in TE buffer and then transferred into 96 well plate with DNA binding buffer (supplied with the DNA damage quantification kit). After 12 h, samples were washed five times with DNA washing buffer (supplied with the DNA damage quantification kit) and then biotin labeled AP sites were quantified using an avidin-biotin assay. Each sample and standards (supplied with a DNA damage quantification kit) were run in triplicate and the OD was measured at 650 nm using a 96-well plate reader (SpectraMax Plus384 Microplate Reader).

cortical neurons [2] = assay: Calcium imaging and mitochondrial Ca2+ uptake; assay type: cell-based, mouse
Protocol: Calcium Imaging: Neuronal cells were plated on 17 mm glass cover slips, pre-coated with poly-L-ornithine (0.1 mg/ml). On DIV 14, the cultures were loaded with calcium sensitive dye Fluo-5f (2.5 μM, dissolved in pleuronic acid/DMSO solution) for 45 min at 37° C. and thereafter placed on a thermostatically confocal microscopic stage (Carl Zeiss). HEPES balanced salt solution (HBSS: NaCl 137 mM, KCl 5 mM, HEPES 20 mM, glucose 10 mM, CaCl2 1.4 mM, NaHCO3 3 mM, Na2HPO4 0.6 mM, KH2PO4 0.4 mM, pH 7.4) was superfused to the cultures for 100 s to obtain a steady base-line. NMDA (500 μM for 5 min) was used to induce intracellular calcium influx. Florescence values were monitored at every 10 s and calculated using LSM 510 Meta software and represent the changes in cellular calcium.
Measurements of Mitochondrial Ca^2+-uptake Capacity: Extramitochondrial free Ca^2+ was monitored in the presence of isolated mitochondria or digitonin-permeabilized cells, using an indicator of extramitochondrial free Ca^2+ (Calcium green-5N, Invitrogen). […] Fluorescence was continuously monitored at an excitation/emission at 488/532 nm respectively. […] Ca^2+ uptake was monitored by addition of 50 μM CaCl2 to the assay medium using a Hamilton syringe.

PARP-1 = molecular target: T1, PARP-1 (Homo sapiens, UniProt P09874); assay: Chemiluminescent PARP assay (biotinylated PAR onto histone); assay type: biochemical; details: incorporation of biotinylated PAR onto histone proteins
T1 construct: purchased Trevigen
Protocol: Because PARP-1 activation plays a prominent role in NMDA excitotoxicity we tested whether PARP-1 activity is directly affected by Iduna. PARP-1 activity was assessed by incorporation of biotinylated PAR onto histone proteins.
Chemiluminescent PARP assay for poly(ADP-ribosyl)ation of Histone H1: Activity of PARP-1 was determined by Trevigen Universal chemiluminescent PARP assay kit (Trevigen, Gaithersburg, Md., USA) in the presence of Iduna or the PARP-1 inhibitor 3-aminobenzamide (3-AB). According to manufacturer's instructions, the incorporation of biotinylated NAD+ (Trevigen) into the poly(ADP-ribose) polymer primed at solid phase immobilized histone H1 (Trevigen) was detected by the chemiluminescent assay, either in the presence or absence of recombinant Iduna. Reactions were performed with 34 μM total biotinylated NAD+ for 60 min at 25° C. in triplicates. Chemiluminescence was measured using a fluorescence multi-well plate reader (SOSTmax, Sunnyvale, Calif.) with an excitation at 544 nm excitation/590 nm emission. In the parallel wells, PARP1 activity was measured after the 3-aminobenzamide treatment at the same concentration of biotinylated NAD+ (34 μM).

T1 sequence (P09874 whole entry): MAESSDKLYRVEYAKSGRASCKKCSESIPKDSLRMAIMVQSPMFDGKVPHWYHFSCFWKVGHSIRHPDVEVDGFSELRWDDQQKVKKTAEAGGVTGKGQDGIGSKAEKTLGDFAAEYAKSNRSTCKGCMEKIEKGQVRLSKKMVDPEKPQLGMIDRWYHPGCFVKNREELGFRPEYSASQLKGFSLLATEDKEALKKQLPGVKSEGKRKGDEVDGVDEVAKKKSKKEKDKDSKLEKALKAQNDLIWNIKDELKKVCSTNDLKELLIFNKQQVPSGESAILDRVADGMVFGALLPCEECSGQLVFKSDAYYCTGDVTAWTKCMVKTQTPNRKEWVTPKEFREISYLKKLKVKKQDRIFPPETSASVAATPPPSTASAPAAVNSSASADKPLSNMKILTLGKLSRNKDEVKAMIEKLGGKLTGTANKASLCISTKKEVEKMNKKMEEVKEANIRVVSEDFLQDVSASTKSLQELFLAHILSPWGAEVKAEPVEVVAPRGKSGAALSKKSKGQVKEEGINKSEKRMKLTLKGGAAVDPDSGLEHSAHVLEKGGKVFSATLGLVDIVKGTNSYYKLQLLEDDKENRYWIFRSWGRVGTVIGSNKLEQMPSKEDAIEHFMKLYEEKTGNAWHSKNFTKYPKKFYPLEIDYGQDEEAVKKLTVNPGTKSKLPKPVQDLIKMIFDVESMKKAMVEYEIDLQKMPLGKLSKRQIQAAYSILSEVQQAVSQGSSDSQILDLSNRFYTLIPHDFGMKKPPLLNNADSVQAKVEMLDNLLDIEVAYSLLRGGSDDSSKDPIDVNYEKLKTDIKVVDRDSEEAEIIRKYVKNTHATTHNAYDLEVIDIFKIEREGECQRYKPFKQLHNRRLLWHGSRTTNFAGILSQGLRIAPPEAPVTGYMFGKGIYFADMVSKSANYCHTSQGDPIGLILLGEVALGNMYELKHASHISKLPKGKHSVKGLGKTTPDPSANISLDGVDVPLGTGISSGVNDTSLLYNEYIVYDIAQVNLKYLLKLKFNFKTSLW

B1: Iduna: novel NMDA-induced cell survival protein, PAR-dependent E3 ligase; 359 amino acids (protein)
chain: MEMAGCGEIDHSINMLPTNKKANESCSNTAPSLTVPECAICLQTCVHPVSLPCKHVFCYLCVKGASWLGKRCALCRQEIPEDFLDKPTLLSPEELKAASRGNGEYAWYYEGRNGWWQYDERTSRELEDAFSKGKKNTEMLIAGFLYVADLENMVQYRRNEHGRRRKIKRDIIDIPKKGVAGLRLDCDTNTVNLARESSADGADSGSAQTGASVQLAVPSSTRPLTSVDGQLTSPVTPSPDAGISLEDSFAHLQLSGDSIAERSHRGEGEEDHESPSSGRVPDTSVEETESDASSDSEDAPVVVAQHSLTQQRPLVPNGNQTVADQSDRSGTDRSVAGGGTMSVNVRSRRPDGQCTVIEV
**Q.** For B1, which “protection against MNNG-induced cell death” value (cortical neurons [1]) is on record?
**A.** The value was “protects neuronal cultures against MNNG-induced cell death”.

**Q.** What about the “increase in AP sites after MNNG” value (MCF7 cells) of the same molecule?
**A.** The value was “completely prevented”.

**Q.** And the mitochondrial calcium uptake (cortical neurons [2]; Calcium green-5N)?
**A.** The mitochondrial calcium uptake was “does not interfere with mitochondrial calcium uptake”.

**Q.** What about the NMDA-induced calcium influx (cortical neurons [2]; fluo-5F, NMDA 500 μM 5 min) of the same molecule?
**A.** Its NMDA-induced calcium influx is “does not interfere with NMDA-induced intercellular calcium influx”.

**Q.** And the PARP-1 activity (PARP-1)?
**A.** The PARP-1 activity was “has no effect”.
